These results are taken from the RNAGym collection of RNA variant scans (doi:10.1073/pnas.2313332121).

B1: TPR t1 (parent)
chain: GACCAAUCUGCCCUCAGAGCUCGAGAACAUCUUCGGAUGCAGAGGAGGCAGGCUUCGGUGGCGCGAUAGCGCCAACGUCCUCAACCUCCAAUGCAUCCCACCACAUGAUGAUGCCUGAAGAGCCUUGGUUUUUUG

The series covers variants of B1. As to the kind of experiment: polymerase ribozyme fitness, log enrichment relative to wild type (log ratio); higher = more active; in vitro selection for triplet polymerase activity. The essentials:
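For each subunit of a heterodimeric triplet polymerase ribozyme, a mutant library was built by PCR and transcribed, then taken through a single in vitro selection round in triplicate. Selection involved annealing to a biotinylated primer, the partner subunit and triplets, incubation frozen at −7 °C, gel excision of extended constructs, capture on streptavidin beads and RT-PCR. Genotypes were retained after Illumina sequencing of inputs and outputs only with ≥10 input reads and ≥1 read in each output. Fitness is defined as the logarithm of a genotype's enrichment relative to wild-type enrichment, using inverse-variance-weighted averages across replicates, with the logarithm taken to base 2.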
On to C56U C99A, for which the “polymerase ribozyme fitness (log ratio)” value was -6.27.
Turning to C15G G44U C72U, the “polymerase ribozyme fitness (log ratio)” value was -4.59.
To A5U G47A C101U belongs -1.94; to A41G C73A C82A C115A G135U, -2.65; to G60U U131C, -0.0582.
The result for G47A G60U U133G reads -0.844.
On to G57A G63U A75U U133A, for which the “polymerase ribozyme fitness (log ratio)” value is -1.97.
As for A5U C64U C80A C88U A95U, the “polymerase ribozyme fitness (log ratio)” value was -4.14.
With A43C C62G G120A, the “polymerase ribozyme fitness (log ratio)” value is -4.98.
With C53A C82G A84G, the “polymerase ribozyme fitness (log ratio)” value is -0.378.
As for C56G A100U, the “polymerase ribozyme fitness (log ratio)” value was -0.785.
Regarding C3U U33G C53U U54A C73U U87A C124A, the “polymerase ribozyme fitness (log ratio)” value was -4.16.
In the case of G17C G35A C123G G128U, the “polymerase ribozyme fitness (log ratio)” value is -4.31.
As for G60U C80G, the “polymerase ribozyme fitness (log ratio)” value was -4.54.
Regarding C12A C86U A111U, the “polymerase ribozyme fitness (log ratio)” value was -3.42.
To G35C C49G C98G belongs -2.89; to C62A C99U, -3.69.
The result for U55C C82A C124G reads 1.37; that for C15A A16U C20A C89G G117U, -3.6.
On to A46U C62U G113A, for which the “polymerase ribozyme fitness (log ratio)” value was -2.45.
As for C12U A16G C20U C64A A84U U112G G113U, the “polymerase ribozyme fitness (log ratio)” value was -7.14.
Take C89G G113C G122U: the “polymerase ribozyme fitness (log ratio)” value was -2.99.
Turning to G42A G69C C124U, the “polymerase ribozyme fitness (log ratio)” value was -2.56.
The result for A27U A37G G48A C72G A83U U130A reads -4.93; that for U112A G120A, 0.565.
Consider G61A C86U, for which the “polymerase ribozyme fitness (log ratio)” value is -0.712.
As to C70G A111C, the “polymerase ribozyme fitness (log ratio)” value is -3.24.
Regarding G17U G110C, the “polymerase ribozyme fitness (log ratio)” value is -7.86.
For C12U G63U, the “polymerase ribozyme fitness (log ratio)” value is -0.968.
As for C12U C13U U38C C40A A91U, the “polymerase ribozyme fitness (log ratio)” value was -3.21.
Take U133G G135C: the “polymerase ribozyme fitness (log ratio)” value is 0.463.
With C20A A46U, the “polymerase ribozyme fitness (log ratio)” value was -4.55.
The result for G48A C72A C115A reads -0.421; that for A68U G117C, -6.92; that for A41C G48A G60A C86U U96G, -3.39.
For the variant C8A G63C C86A G93C, the “polymerase ribozyme fitness (log ratio)” value was -3.35.
Regarding C70G G113U, the “polymerase ribozyme fitness (log ratio)” value is -4.42.
For C8G G39A, the “polymerase ribozyme fitness (log ratio)” value was -0.708.
Take C11U A50U C88U: the “polymerase ribozyme fitness (log ratio)” value was -1.26.
C53G C56U: the “polymerase ribozyme fitness (log ratio)” value is -0.756.
Consider C53U G71A C101G U130A, for which the “polymerase ribozyme fitness (log ratio)” value was -3.93.
Regarding C114U U126A, the “polymerase ribozyme fitness (log ratio)” value was -3.35.
G60U C97A: the “polymerase ribozyme fitness (log ratio)” value was -5.24.
Consider C56U G93A, for which the “polymerase ribozyme fitness (log ratio)” value was -0.279.
Consider C49G C53G G69C C72U, for which the “polymerase ribozyme fitness (log ratio)” value is -1.21.
To A27U C62U A74G belongs -7.73; to C73U G110C, -3.31; to C12U C72U U81G, -3.47.
Regarding A66G G127U, the “polymerase ribozyme fitness (log ratio)” value was -1.49.
Consider G52U G117U U133A, for which the “polymerase ribozyme fitness (log ratio)” value was -3.76.
Take A37G C56U C102A: the “polymerase ribozyme fitness (log ratio)” value was -1.87.
To C31U U96G belongs -5.37; to A50U C101G U106A A118G C124A, 0.335; to C11U C114G, -3.54.
Take C3U U7C A18C G52A C72U C94A: the “polymerase ribozyme fitness (log ratio)” value was -4.4.
In the case of C64G C98U, the “polymerase ribozyme fitness (log ratio)” value is -6.14.
For the variant C4U A5C C12G C62U C89U C123G, the “polymerase ribozyme fitness (log ratio)” value is -1.41.
In the case of U7A C89U, the “polymerase ribozyme fitness (log ratio)” value is -0.565.
For C8G G63A, the “polymerase ribozyme fitness (log ratio)” value was -0.627.
Consider G61C C89G G113U U133C, for which the “polymerase ribozyme fitness (log ratio)” value is -4.45.
For the variant A2C G19A A29C A41G A43U C64G G113A C123A U126G, the “polymerase ribozyme fitness (log ratio)” value is -5.93.
As to G36U A111U, the “polymerase ribozyme fitness (log ratio)” value is -3.05.
For C31U C79G C124G, the “polymerase ribozyme fitness (log ratio)” value is -5.57.
To C70U U106A belongs -0.205; to G93A A118U U133A, 0.0816.
As for C28U G135U, the “polymerase ribozyme fitness (log ratio)” value is -2.44.
On to C72G U92A, for which the “polymerase ribozyme fitness (log ratio)” value was -3.94.
A2U G61A G127C: the “polymerase ribozyme fitness (log ratio)” value was -1.88.
As to C12A G45C, the “polymerase ribozyme fitness (log ratio)” value is -1.32.
Take G35C G39U: the “polymerase ribozyme fitness (log ratio)” value is -5.8.
Take A46U G93A A119G U132A: the “polymerase ribozyme fitness (log ratio)” value is -1.15.
Regarding C11G C20G C49A G117C, the “polymerase ribozyme fitness (log ratio)” value is -5.23.
On to G25A C64G U81A C114A, for which the “polymerase ribozyme fitness (log ratio)” value was -5.93.
As for G44C G71U A108U G110C U125A, the “polymerase ribozyme fitness (log ratio)” value was -6.18.
Turning to A5U C11G A16U G60U A103C, the “polymerase ribozyme fitness (log ratio)” value is -5.34.
Take C13U A26U: the “polymerase ribozyme fitness (log ratio)” value was -3.03.
To A41G A50U belongs -1.71.
With U14A C49G G61C A66U, the “polymerase ribozyme fitness (log ratio)” value was -5.01.
Turning to C73G A83C C101G C115U U116A, the “polymerase ribozyme fitness (log ratio)” value was -5.12.
A41C U78G G122A: the “polymerase ribozyme fitness (log ratio)” value was -1.85.
C12U A27C C62A A83U: the “polymerase ribozyme fitness (log ratio)” value is -6.02.
For the variant U7G G45C G47A U59C, the “polymerase ribozyme fitness (log ratio)” value is -1.08.
To G52A G120U belongs -0.416.
